Test results from PMC3696110, “Hsp70 Oligomerization Is Mediated by an Interaction between the Interdomain Linker and the Substrate-Binding Domain” (PLoS ONE, 2013).
Where two headings read alike, the source gives them in different places.

Experiments:
[1] = molecular target: ΔLSBD641 (394-641), SBD641 of human Hsp70 without the first ten residues of the interdomain linker (human) (UniProt P0DMV8); test: SEC; analytical SEC, Superdex 75 10/300 GL, 4 °C, 50 mM Tris pH 7.4, 150 mM KCl, 5 mM MgCl2; 6 µM protein
[2] = molecular target: ΔLSBD641 (394-641), SBD641 of human Hsp70 without the first ten residues of the interdomain linker (human) (UniProt P0DMV8); test: SEC; fraction of oligomeric species set beside DLS (Figure S3C), without NR peptide; 20 µM protein named for the panel
[3] = molecular target: dansyl-NR peptide (NRLLLTG, N-terminally labelled with dansyl); test: other fluorescence titration; chaperone titrated into 2 µM dansyl-NR peptide, 1 h at 25 °C, 50 mM Tris pH 7.4, 150 mM KCl, 5 mM MgCl2; single-site fit, apparent Kd
[4] = molecular target: ΔLSBD641 (394-641), SBD641 of human Hsp70 without the first ten residues of the interdomain linker (human) (UniProt P0DMV8); test: native MS; nESI-MS, 150 mM ammonium acetate pH 7.4, protein 6 µM (6-15 µM); abundances from the most abundant charge states
[5] = molecular target: ΔLSBD641 (394-641), SBD641 of human Hsp70 without the first ten residues of the interdomain linker (human) (UniProt P0DMV8); test: SEC; analytical SEC, Superdex 75 10/300 GL, 4 °C, 50 mM Tris pH 7.4, 150 mM KCl, 5 mM MgCl2; 70 µM protein
[6] = system: P0DMV8; test: SEC; analytical SEC, Superdex 75 10/300 GL, 4 °C, 50 mM Tris pH 7.4, 150 mM KCl, 5 mM MgCl2; 6 µM protein
[7] = system: P0DMV8; test: native MS; nESI-MS, 150 mM ammonium acetate pH 7.4, protein 6 µM (6-15 µM); abundances from the most abundant charge states
[8] = system: P0DMV8; test: SEC; analytical SEC, Superdex 75 10/300 GL, 4 °C, 50 mM Tris pH 7.4, 150 mM KCl, 5 mM MgCl2; 70 µM protein
[9] = molecular target: full-length human Hsp70 (Hsp70 1A) (human) (UniProt P0DMV8); test: SEC; analytical SEC, Superdex 75 10/300 GL, 4 °C; 220 µM protein
[10] = molecular target: full-length human Hsp70 (Hsp70 1A) (human) (UniProt P0DMV8); test: SEC; analytical SEC, Superdex 75 10/300 GL, 4 °C, 50 mM Tris pH 7.4, 150 mM KCl, 5 mM MgCl2; 6 µM protein
[11] = molecular target: full-length human Hsp70 (Hsp70 1A) (human) (UniProt P0DMV8); test: native MS; nESI-MS, 150 mM ammonium acetate pH 7.4, protein 6 µM (6-15 µM); abundances from the most abundant charge states
[12] = molecular target: full-length human Hsp70 (Hsp70 1A) (human) (UniProt P0DMV8); test: SEC; analytical SEC, Superdex 75 10/300 GL, 4 °C, 50 mM Tris pH 7.4, 150 mM KCl, 5 mM MgCl2; 70 µM protein
[13] = molecular target: FL-Hsp70 2LD, full-length human Hsp70 with Leu395 and Leu397 substituted by aspartic residues (human) (UniProt P0DMV8); test: SEC; analytical SEC, Superdex 75 10/300 GL, 4 °C; 220 µM protein
[14] = molecular target: SBD556 (384-556) of human Hsp70 with the L542Y mutation (human) (UniProt P0DMV8); test: SEC; analytical SEC, Superdex 75 10/300 GL, 4 °C, 50 mM Tris pH 7.4, 150 mM KCl, 5 mM MgCl2; 6 µM protein
[15] = molecular target: SBD556 (384-556) of human Hsp70 with the L542Y mutation (human) (UniProt P0DMV8); test: native MS; nESI-MS, 150 mM ammonium acetate pH 7.4, protein 6 µM (6-15 µM); abundances from the most abundant charge states
[16] = molecular target: SBD556 (384-556) of human Hsp70 with the L542Y mutation (human) (UniProt P0DMV8); test: SEC; analytical SEC, Superdex 75 10/300 GL, 4 °C, 50 mM Tris pH 7.4, 150 mM KCl, 5 mM MgCl2; 70 µM protein
[17] = system: P0DMV8; test: SEC; analytical SEC of SBD641 refolded after thermal denaturation; protein concentration of this panel not stated
[18] = system: P0DMV8; test: SEC; analytical SEC after 1 h at room temperature with a 14-fold excess of NR peptide; protein concentration of this panel not stated
[19] = molecular target: SBD641 (384-641), full-length substrate-binding domain of human Hsp70 with the interdomain linker (human) (UniProt P0DMV8); test: SEC; analytical SEC, Superdex 75 10/300 GL, 4 °C, 50 mM Tris pH 7.4, 150 mM KCl, 5 mM MgCl2; 6 µM protein
[20] = molecular target: SBD641 (384-641), full-length substrate-binding domain of human Hsp70 with the interdomain linker (human) (UniProt P0DMV8); test: SEC; fraction of oligomeric species set beside DLS (Figure S3C), without NR peptide; 20 µM protein named for the panel
[21] = molecular target: SBD641 (384-641), full-length substrate-binding domain of human Hsp70 with the interdomain linker (human) (UniProt P0DMV8); test: SEC + other: dynamic light scattering; fraction of oligomers (SEC) and apparent hydrodynamic diameter (DLS) of SBD641 against protein concentration; extrapolation to 0.5 oligomer fraction
[22] = molecular target: SBD641 (384-641), full-length substrate-binding domain of human Hsp70 with the interdomain linker (human) (UniProt P0DMV8); test: SEC; fraction of oligomeric species set beside DLS (Figure S3C), with 14-times excess of NR peptide; 20 µM SBD641 named for the panel
[23] = molecular target: SBD641 (384-641), full-length substrate-binding domain of human Hsp70 with the interdomain linker (human) (UniProt P0DMV8); test: native MS; nESI-MS, 150 mM ammonium acetate pH 7.4, protein 6 µM (6-15 µM); abundances from the most abundant charge states
[24] = molecular target: SBD641 (384-641), full-length substrate-binding domain of human Hsp70 with the interdomain linker (human) (UniProt P0DMV8); test: SEC; analytical SEC, Superdex 75 10/300 GL, 4 °C, 50 mM Tris pH 7.4, 150 mM KCl, 5 mM MgCl2; 70 µM protein
[25] = molecular target: SBD641 (384-641), full-length substrate-binding domain of human Hsp70 with the interdomain linker (human) (UniProt P0DMV8); test: SEC; analytical SEC after 1 h at room temperature with a 14-fold excess of NR peptide; protein concentration of this panel not stated
[26] = molecular target: SBD641 (384-641), full-length substrate-binding domain of human Hsp70 with the interdomain linker (human) (UniProt P0DMV8); test: native MS; nESI-MS, 150 mM ammonium acetate pH 7.4, protein 6 µM (6-15 µM); abundances from the most abundant charge states; remark: listed apart in the source
[27] = molecular target: SBD641 (384-641), full-length substrate-binding domain of human Hsp70 with the interdomain linker (human) (UniProt P0DMV8); test: native MS + SEC; oligomerization constant estimated from the populations of Table 1; equilibrium of monomer, dimer and trimer

Chain of FL-Hsp70 2LD, full-length human Hsp70 with Leu395 and Leu397 substituted by aspartic residues (P0DMV8 whole entry): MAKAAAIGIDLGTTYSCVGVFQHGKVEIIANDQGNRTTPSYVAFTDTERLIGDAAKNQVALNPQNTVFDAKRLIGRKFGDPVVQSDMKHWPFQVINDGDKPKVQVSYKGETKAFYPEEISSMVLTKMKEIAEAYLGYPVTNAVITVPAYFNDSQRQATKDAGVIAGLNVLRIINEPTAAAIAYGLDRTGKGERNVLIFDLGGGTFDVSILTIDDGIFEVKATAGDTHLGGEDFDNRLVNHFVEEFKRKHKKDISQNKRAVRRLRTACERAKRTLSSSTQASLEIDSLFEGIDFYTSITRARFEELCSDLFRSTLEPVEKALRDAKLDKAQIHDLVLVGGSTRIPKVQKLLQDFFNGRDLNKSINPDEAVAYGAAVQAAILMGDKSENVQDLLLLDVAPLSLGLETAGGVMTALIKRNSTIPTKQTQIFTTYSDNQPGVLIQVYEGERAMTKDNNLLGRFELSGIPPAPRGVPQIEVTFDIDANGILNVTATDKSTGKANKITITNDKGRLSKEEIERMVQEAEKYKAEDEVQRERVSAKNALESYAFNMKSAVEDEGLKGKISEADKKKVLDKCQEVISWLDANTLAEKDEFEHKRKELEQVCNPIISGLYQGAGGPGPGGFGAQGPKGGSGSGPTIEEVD

**Q.** What does the source list for “ΔLSBD641 (394-641), SBD641 of human Hsp70 without the first ten residues of the interdomain linker (from UniProt P0DMV8 394-641) (domain or fragment)”?
**A.** % dimer [1]: 9%; % total oligomers [1]: 9%; fraction of oligomeric species [2]: 0.1; Kd [3]: 8 µM; % dimer [4]: 8%; % total oligomers [4]: 8%; % trimer [4]: -0%; % dimer [5]: 14%; % total oligomers [5]: 14%

**Q.** Which % monomer [6] does the source give for full-length human Hsp70 (Hsp70 1A) here?
**A.** Its % monomer is 99%.

**Q.** What about the % monomer [7] of the same substance?
**A.** Its % monomer is 98%.

**Q.** What about the % monomer [8] of the same substance?
**A.** Its % monomer is 93%.

**Q.** Which % oligomeric species [9] does the source give for “full-length human Hsp70 (Hsp70 1A) (from UniProt P0DMV8 1-641) (natural protein)” here?
**A.** The % oligomeric species was 35%.

**Q.** What about the % dimer [10] of the same substance?
**A.** The % dimer was 1%.

**Q.** And the % total oligomers [10]?
**A.** Its % total oligomers is 1%.

**Q.** And the Kd [3]?
**A.** Its Kd is 9 µM.

**Q.** And the % dimer [11]?
**A.** The % dimer was 2%.

**Q.** And the % total oligomers [11]?
**A.** Its % total oligomers is 2%.

**Q.** What about the % trimer [11] of the same substance?
**A.** Its % trimer is -0%.

**Q.** What about the % dimer [12] of the same substance?
**A.** The % dimer was 7%.

**Q.** And the % oligomeric species [12]?
**A.** Its % oligomeric species is 10%.

**Q.** And the % total oligomers [12]?
**A.** The % total oligomers was 7%.

**Q.** With “FL-Hsp70 2LD, full-length human Hsp70 with Leu395 and Leu397 substituted by aspartic residues (from UniProt P0DMV8 1-641) (natural protein)” as the substance, how does the % oligomeric species [13] read?
**A.** The % oligomeric species was less than 9%.

**Q.** With “SBD556 (384-556) of human Hsp70 with the L542Y mutation” as the substance, how does the % monomer [6] read?
**A.** Its % monomer is 97%.

**Q.** What about the % monomer [7] of the same substance?
**A.** The % monomer was 82%.

**Q.** What about the % monomer [8] of the same substance?
**A.** The % monomer was 93%.

**Q.** With “ΔLSBD641 (394-641), SBD641 of human Hsp70 without the first ten residues of the interdomain linker” as the substance, how does the % monomer [6] read?
**A.** The % monomer was 91%.

**Q.** What about the % monomer [7] of the same substance?
**A.** Its % monomer is 92%.

**Q.** What about the % monomer [8] of the same substance?
**A.** Its % monomer is 86%.

**Q.** Which % dimer [14] does the source give for “SBD556 (384-556) of human Hsp70 with the L542Y mutation (from UniProt P0DMV8 384-556) (domain or fragment)” here?
**A.** Its % dimer is 3%.

**Q.** What about the % total oligomers [14] of the same substance?
**A.** Its % total oligomers is 3%.

**Q.** And the Kd [3]?
**A.** Its Kd is 53 µM.

**Q.** And the % dimer [15]?
**A.** Its % dimer is 16%.

**Q.** What about the % total oligomers [15] of the same substance?
**A.** The % total oligomers was 18%.

**Q.** And the % trimer [15]?
**A.** Its % trimer is 2%.

**Q.** And the % dimer [16]?
**A.** Its % dimer is 7%.

**Q.** And the % total oligomers [16]?
**A.** Its % total oligomers is 7%.

**Q.** Which results are given for “SBD641 (384-641), full-length substrate-binding domain of human Hsp70 with the interdomain linker”?
**A.** % monomer [6]: 37%; % monomer [7]: 46%; % monomer [17]: a dramatic increase in the monomeric fraction of the refolded protein compared to the native protein (from 37% to 71%); % monomer [8]: 23%; % monomer [18]: the monomeric fraction increases from 37% to 58% in the presence of peptide

**Q.** With “SBD641 (384-641), full-length substrate-binding domain of human Hsp70 with the interdomain linker (from UniProt P0DMV8 384-641) (domain or fragment)” as the substance, how does the % dimer [19] read?
**A.** The % dimer was 44%.

**Q.** What about the % total oligomers [19] of the same substance?
**A.** The % total oligomers was 63%.

**Q.** What about the fraction of oligomeric species [20] of the same substance?
**A.** Its fraction of oligomeric species is 0.7.

**Q.** What about the Kd [21] of the same substance?
**A.** Its Kd is 1 to 10 µM.

**Q.** And the Kd [3]?
**A.** Its Kd is 11 µM.

**Q.** And the fraction of oligomeric species [22]?
**A.** Its fraction of oligomeric species is 0.5.

**Q.** And the % dimer [23]?
**A.** Its % dimer is 40%.

**Q.** And the % total oligomers [23]?
**A.** The % total oligomers was 54%.

**Q.** What about the % trimer [23] of the same substance?
**A.** Its % trimer is 10%.

**Q.** And the % dimer [24]?
**A.** Its % dimer is 55%.

**Q.** And the % higher-order oligomers [24]?
**A.** The % higher-order oligomers was 22%.

**Q.** And the % total oligomers [24]?
**A.** The % total oligomers was 77%.

**Q.** What about the % dimer [25] of the same substance?
**A.** The % dimer was 24%.

**Q.** What about the % higher-order oligomers [25] of the same substance?
**A.** Its % higher-order oligomers is 18%.

**Q.** What about the % tetramer [26] of the same substance?
**A.** The % tetramer was 2%.

**Q.** What about the % trimer [26] of the same substance?
**A.** The % trimer was 12%.

**Q.** What about the Kd [27] of the same substance?
**A.** The Kd was 5 to 10 µM.
